According to patent publication US20030158389A1 (Genentech, published 2003):

B1: E27 anti-IgE antibody, wild type (humanized IgG1) (antibody)
heavy: not shown
light: DIQLTQSPSSLSASVGDRVTITCRASKPVDGEGDSYMNWYQQKPGKAPKLLIYAASYLESGVPSRFSGSGSGTDFTLTISSLQPEDFATYYCQQSHEDPYTFGQGTKVEIKRTVAAPSVFIFPPSDEQLKSGTASVVCLLNNFYPREAKVQWKVDNALQSGNSQESVTEQDSKDSTYSLSSTLTLSKADYEKHKVYACEVTHQGLSSPVTKSFNRGEC
notes: In the FcγRII and FcγRIII ELISAs it stood as an immune complex E27:chimeric IgE:VEGF (1:1:2); also called wt; recombinant anti-IgE E27
B2: E27 anti-IgE antibody mutant P331A (antibody)
heavy: not shown
light: DIQLTQSPSSLSASVGDRVTITCRASKPVDGEGDSYMNWYQQKPGKAPKLLIYAASYLESGVPSRFSGSGSGTDFTLTISSLQPEDFATYYCQQSHEDPYTFGQGTKVEIKRTVAAPSVFIFPPSDEQLKSGTASVVCLLNNFYPREAKVQWKVDNALQSGNSQESVTEQDSKDSTYSLSSTLTLSKADYEKHKVYACEVTHQGLSSPVTKSFNRGEC
notes: also called P331A (E27 background)
B3: E27 anti-IgE antibody mutant P329A (antibody)
heavy: not shown
light: DIQLTQSPSSLSASVGDRVTITCRASKPVDGEGDSYMNWYQQKPGKAPKLLIYAASYLESGVPSRFSGSGSGTDFTLTISSLQPEDFATYYCQQSHEDPYTFGQGTKVEIKRTVAAPSVFIFPPSDEQLKSGTASVVCLLNNFYPREAKVQWKVDNALQSGNSQESVTEQDSKDSTYSLSSTLTLSKADYEKHKVYACEVTHQGLSSPVTKSFNRGEC
notes: also called P329A (E27 background)
B4: E27 anti-IgE antibody mutant K320A (antibody)
heavy: not shown
light: DIQLTQSPSSLSASVGDRVTITCRASKPVDGEGDSYMNWYQQKPGKAPKLLIYAASYLESGVPSRFSGSGSGTDFTLTISSLQPEDFATYYCQQSHEDPYTFGQGTKVEIKRTVAAPSVFIFPPSDEQLKSGTASVVCLLNNFYPREAKVQWKVDNALQSGNSQESVTEQDSKDSTYSLSSTLTLSKADYEKHKVYACEVTHQGLSSPVTKSFNRGEC
notes: also called K320A (E27 background)
B5: E27 anti-IgE antibody mutant E318A (antibody)
heavy: not shown
light: DIQLTQSPSSLSASVGDRVTITCRASKPVDGEGDSYMNWYQQKPGKAPKLLIYAASYLESGVPSRFSGSGSGTDFTLTISSLQPEDFATYYCQQSHEDPYTFGQGTKVEIKRTVAAPSVFIFPPSDEQLKSGTASVVCLLNNFYPREAKVQWKVDNALQSGNSQESVTEQDSKDSTYSLSSTLTLSKADYEKHKVYACEVTHQGLSSPVTKSFNRGEC
notes: also called E318A (E27 background)
B6: E27 anti-IgE antibody mutant K322A (antibody)
heavy: not shown
light: DIQLTQSPSSLSASVGDRVTITCRASKPVDGEGDSYMNWYQQKPGKAPKLLIYAASYLESGVPSRFSGSGSGTDFTLTISSLQPEDFATYYCQQSHEDPYTFGQGTKVEIKRTVAAPSVFIFPPSDEQLKSGTASVVCLLNNFYPREAKVQWKVDNALQSGNSQESVTEQDSKDSTYSLSSTLTLSKADYEKHKVYACEVTHQGLSSPVTKSFNRGEC
notes: also called K322A (E27 background)

Legend:
[1] = target: T1, FcγRI α subunit-GST fusion (UniProt P12314 16-292); experiment: ELISA, monomeric IgG on coated FcγRI α subunit-GST
T1 construct: not shown: glutathione S transferase (GST)
T1 sequence (P12314 other isoform, or with tags, fused parts or gaps, form in doubt): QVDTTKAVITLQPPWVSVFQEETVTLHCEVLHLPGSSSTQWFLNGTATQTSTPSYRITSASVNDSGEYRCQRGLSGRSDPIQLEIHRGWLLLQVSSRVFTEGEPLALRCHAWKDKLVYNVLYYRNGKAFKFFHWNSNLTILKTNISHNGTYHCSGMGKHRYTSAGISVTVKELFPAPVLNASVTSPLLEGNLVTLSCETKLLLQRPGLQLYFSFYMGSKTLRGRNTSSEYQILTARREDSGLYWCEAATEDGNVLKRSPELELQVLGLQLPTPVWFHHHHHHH

[2] = target: T2, FcγRIIb α subunit ECD-6His-GST fusion protein (UniProt P31994 43-217); experiment: ELISA, E27:chimeric IgE:VEGF immune complex on coated receptor ECD-6His-GST
T2 construct: not shown: glutathione S transferase (GST)
T2 sequence: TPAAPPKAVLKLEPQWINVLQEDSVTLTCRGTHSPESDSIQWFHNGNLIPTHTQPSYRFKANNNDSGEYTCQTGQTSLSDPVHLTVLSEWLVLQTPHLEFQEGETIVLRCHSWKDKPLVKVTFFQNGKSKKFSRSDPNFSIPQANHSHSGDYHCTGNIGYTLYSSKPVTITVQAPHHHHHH

[3] = target: T3, FcγRIIa α subunit ECD-6His-GST fusion protein (UniProt P12318 34-217); experiment: as above
T3 construct: not shown: glutathione S transferase (GST)
T3 sequence: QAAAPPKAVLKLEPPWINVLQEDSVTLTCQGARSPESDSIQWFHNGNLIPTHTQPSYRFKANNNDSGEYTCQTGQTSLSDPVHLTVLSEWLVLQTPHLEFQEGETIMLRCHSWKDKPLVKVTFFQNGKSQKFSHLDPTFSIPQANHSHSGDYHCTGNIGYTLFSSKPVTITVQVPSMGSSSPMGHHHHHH

[4] = target: T4, FcγRIIIa α subunit ECD-6His-GST fusion protein (UniProt P08637 17-208); experiment: as above
T4 construct: not shown: glutathione S transferase (GST)
T4 sequence (P08637 other isoform, or with tags, fused parts or gaps, form in doubt): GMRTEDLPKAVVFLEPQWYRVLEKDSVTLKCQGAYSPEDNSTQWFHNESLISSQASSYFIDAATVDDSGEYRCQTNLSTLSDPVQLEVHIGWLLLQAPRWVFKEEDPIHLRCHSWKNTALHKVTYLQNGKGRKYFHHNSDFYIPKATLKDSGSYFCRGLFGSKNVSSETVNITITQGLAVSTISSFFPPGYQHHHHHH

Row | Binder | binding as percentage of the wild type [1] [%] | binding as percentage of the wild type [2] [%] | binding as percentage of the wild type [3] [%] | binding as percentage of the wild type [4] [%]
1 | B1 | 100 | 100 | 100 | 100
2 | B2 | 74 | 58 | 86 | 73
3 | B3 | 104 | 96 | 111 | 85
4 | B4 | 102 | 83 | 94 | 72
5 | B5 | 93 | 106 | 113 | 104
6 | B6 | 90 | 101 | 109 | 90
